These results are taken from US20250145723A1 (MINGHUI PHARMACEUTICAL HANGZHOU, published 2025).

This assay concerns the target T1, recombinant human IGF-1R-his (human, UniProt P08069 31-932).
T1 construct: Recombinant his-tagged protein; also called hIGF-1R-his; hIGF1R-his; not shown: his tag
Nature of the assay: ELISA, coated hIGF-1R-his. The method, then: The binding activity of the nanobody-Fc fusion proteins obtained after two rounds of mutant construction with the antigen proteins (recombinant human IGF-1R-His) was detected by an ELISA method: 2 μg/mL recombinant human IGF1R-His antigen proteins were added to a 96-well ELISA plate, at 30 μL/well, for coating overnight at 4° C. The plate was washed three times with PBST. PBS containing 5% skim milk powder was added for blocking at room temperature for 2 h. The plate was washed three times with PBST. The nanobody-Fc fusion proteins were serially diluted 3-fold, and the nanobody-Fc fusion proteins of different concentrations were added to each well at 30 μL/well and incubated at room temperature for 1 h. The plate was washed three times with PBST, and horseradish peroxidase-labeled anti-human Fc antibodies were added at 30 μL/well and incubated at room temperature for 50 min. The plate was washed three times with PBST. TMB substrate solution was added at 30 μL/well for color development in the dark for 1-5 min, 30 μL of 2 M hydrochloric acid was added to terminate the reaction, and the OD₄₅₀ was read using a microplate reader. Curve fitting was conducted and the EC₅₀ value was calculated using Graphpad Prism software.
(An ELISA detects its analyte on a solid surface through an enzyme-linked reagent.)

T1 sequence (P08069 31-932 limits assumed): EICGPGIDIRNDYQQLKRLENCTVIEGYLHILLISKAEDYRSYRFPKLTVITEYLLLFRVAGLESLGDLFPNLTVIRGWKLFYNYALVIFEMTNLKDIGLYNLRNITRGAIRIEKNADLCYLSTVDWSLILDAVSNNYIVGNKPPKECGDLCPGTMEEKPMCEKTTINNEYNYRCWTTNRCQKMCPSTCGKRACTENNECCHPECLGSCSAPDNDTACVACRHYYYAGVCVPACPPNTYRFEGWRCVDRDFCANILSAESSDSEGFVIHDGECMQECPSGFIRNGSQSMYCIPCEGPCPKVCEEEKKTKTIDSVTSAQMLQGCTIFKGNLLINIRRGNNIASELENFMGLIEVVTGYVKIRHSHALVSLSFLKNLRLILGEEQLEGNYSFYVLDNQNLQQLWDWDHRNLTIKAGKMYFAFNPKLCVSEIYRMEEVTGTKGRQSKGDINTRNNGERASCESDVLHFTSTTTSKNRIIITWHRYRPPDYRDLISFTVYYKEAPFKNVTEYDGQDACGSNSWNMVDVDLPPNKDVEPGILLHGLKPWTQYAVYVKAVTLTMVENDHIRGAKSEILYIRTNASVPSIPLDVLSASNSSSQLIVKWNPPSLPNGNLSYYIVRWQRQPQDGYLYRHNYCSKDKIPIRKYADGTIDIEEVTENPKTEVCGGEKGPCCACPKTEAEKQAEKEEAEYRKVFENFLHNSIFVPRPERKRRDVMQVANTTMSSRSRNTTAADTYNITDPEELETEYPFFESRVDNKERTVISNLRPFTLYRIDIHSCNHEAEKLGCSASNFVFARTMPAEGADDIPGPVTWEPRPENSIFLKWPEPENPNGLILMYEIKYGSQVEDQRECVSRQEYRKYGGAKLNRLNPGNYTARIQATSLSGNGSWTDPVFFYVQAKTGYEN

B1: 5115-H1-M1-Fc (Fc fusion)
chain: EVQLVESGGGLVQPGGSLRLSCAASGRTFSSFVMSWFRQAPGKEREFVSAISGSGSRSRYADSVKGRFTISRDNSKNTLYLQMNSLRAEDTAVYYCAANPRRATPDYTQYAYWGQGTLVTVSS
notes: VHH-Fc; Fc not specified; not shown: Fc
As a reminder, the EC50 is the concentration giving half of the maximal effect. On to B1, for which the EC50 came to 1.22 ng/mL.

B2: 5115-H1-M28-Fc (Fc fusion)
chain: EVQLVESGGGLVQPGGSLRLSCAASGRTFSSFVMSWFRQAPGKEREFVSAISGSGSRYRYADSVKGRFTISRDNSKNTLYLQMNSLRAEDTAVYYCAANPRRATPDLKQYAYWGQGTLVTVSS
notes: as for B1
Take B2: the EC50 was found to be 1.18 ng/mL.

B3: 5115-H1-M5-Fc (Fc fusion)
chain: EVQLVESGGGLVQPGGSLRLSCAASGRYFSSFVMAWFRQAPGKGLEFVSAISGSGLRARYADSVKGRFTISRDNSKNTLYLQMNSLRAEDTAVYYCAANPRRATPDLTSYAYWGQGTLVTVSS
notes: as for B1
For B3, the EC50 came out at 5.88 ng/mL.

B4: 5115-H1-M30-Fc (Fc fusion)
chain: EVQLVESGGGLVQPGGSLRLSCAASGARFSSFVMSWFRQAPGKEREFVSAISGSGSRHRYADSVKGRFTISRDNSKNTLYLQMNSLRAEDTAVYYCAANPRRATPDYTQYAYWGQGTLVTVSS
notes: as for B1
As to B4, the EC50 was found to be 2.45 ng/mL.

B5: 5115-H1-M14-Fc (Fc fusion)
chain: EVQLVESGGGLVQPGGSLRLSCAASGRTFSSFVMSWFRQAPGKEREFVSAISGSGSRMRYADSVKGRFTISRDNSKNTLYLQMNSLRAEDTAVYYCAANPRRATPDLTQYAYWGQGTLVTVSS
notes: as for B1
For B5, the EC50 was found to be 4.31 ng/mL.

B6: 5115-H1-M32-Fc (Fc fusion)
chain: EVQLVESGGGLVQPGGSLRLSCAASGRARSSFVMSWFRQAPGKEREFVSAISGSGSRVRYADSVKGRFTISRDNSKNTLYLQMNSLRAEDTAVYYCAANPRRATPDYTQYAYWGQGTLVTVSS
notes: as for B1
Regarding B6, the EC50 came out at 1.58 ng/mL.

B7: 5115-H1-M24-Fc (Fc fusion)
chain: EVQLVESGGGLVQPGGSLRLSCAASGRTFSGFVMAWFRQAPGKGLEFVSAISGTGSRARYADSVKGRFTISRDNSKNTLYLQMNSLRAEDTAVYYCAANPRRATPDLTQYAYWGQGTLVTVSS
notes: as for B1
Consider B7, for which the concentration giving a half-maximal response (EC50) was found to be 1.83 ng/mL.

B8: 5115-H1-M20-Fc (Fc fusion)
chain: EVQLVESGGGLVQPGGSLRLSCAASGRTFRSFVMSWFRQAPGKEREFVSAISGSGSRYRYADSVKGRFTISRDNSKNTLYLQMNSLRAEDTAVYYCAANPRRATPDYTQYAYWGQGTLVTVSS
notes: as for B1
For B8, the EC50 came out at 2.21 ng/mL.

B9: 5115-H1-M6-Fc (Fc fusion)
chain: EVQLVESGGGLVQPGGSLRLSCAASGREFSSFVMAWFRQAPGKGLEFVSAISGSGSRARYADSVKGRFTISRDNSKNTLYLQMNSLRAEDTAVYYCAANPRRATPDLTSYAYWGQGTLVTVSS
notes: as for B1
Consider B9, for which the EC50 was determined as 2.62 ng/mL.

B10: 5115-H1-M7-Fc (Fc fusion)
chain: EVQLVESGGGLVQPGGSLRLSCAASGRTFSSFVMSWFRQAPGKEREFVSAISGRGSRAYYADSVKGRFTISRDNSKNTLYLQMNSLRAEDTAVYYCAANPRRATPDLRQYAYWGQGTLVTVSS
notes: as for B1
Take B10: the EC50 turned out to be 3.04 ng/mL.

B11: 5115-H1-M12-Fc (Fc fusion)
chain: EVQLVESGGGLVQPGGSLRLSCAASGRTFSSFVMSWFRQAPGKEREFVSAISGSGSRARYADSVKGRFTISRDNSKNTLYLQMNSLRAEDTAVYYCAANPRRATPDLRQYAYWGQGTLVTVSS
notes: as for B1
For B11, the EC50 was determined as 1.41 ng/mL.

B12: 5115-H1-M2-Fc (Fc fusion)
chain: EVQLVESGGGLVQPGGSLRLSCAASGRTFSSFVMSWFRQAPGKEREFVSAISGSGSRARYADSVKGRFTISRDNSKNTLYLQMNSLRAEDTAVYYCAANPRRATPDLLQYAYWGQGTLVTVSS
notes: as for B1
As for B12, the EC50 worked out at 1.5 ng/mL.

B13: 5115-H1-M18-Fc (Fc fusion)
chain: EVQLVESGGGLVQPGGSLRLSCAASGRRFSSFVMSWFRQAPGKEREFVSAISGSGSRARYADSVKGRFTISRDNSKNTLYLQMNSLRAEDTAVYYCAANPRRATPDLTQYAYWGQGTLVTVSS
notes: as for B1
For B13, the EC50 amounted to 2.89 ng/mL.

B14: 5115-H1-M31-Fc (Fc fusion)
chain: EVQLVESGGGLVQPGGSLRLSCAASGRTFSSFVMSWFRQAPGKEREFVSAISGSGSRARYADSVKGRFTISRDNSKNTLYLQMNSLRAEDTAVYYCAANPRRATPDMRQYAYWGQGTLVTVSS
notes: as for B1
B14: the EC50 is 1.84 ng/mL.

B15: 5115-H1-M19-Fc (Fc fusion)
chain: EVQLVESGGGLVQPGGSLRLSCAASGRTFSSFVMSWFRQAPGKEREFVSAISGSGSRMRYADSVKGRFTISRDNSKNTLYLQMNSLRAEDTAVYYCAANPRRATPDLHQYAYWGQGTLVTVSS
notes: as for B1
Consider B15, for which the EC50 turned out to be 1.93 ng/mL.

B16: 5115-H1-M11-Fc (Fc fusion)
chain: EVQLVESGGGLVQPGGSLRLSCAASGIRFSSFVMSWFRQAPGKEREFVSAISGSGSRHRYADSVKGRFTISRDNSKNTLYLQMNSLRAEDTAVYYCAANPRRATPDYTQYAYWGQGTLVTVSS
notes: as for B1
For B16, the EC50 is 2.51 ng/mL.

B17: 5115-H1-M13-Fc (Fc fusion)
chain: EVQLVESGGGLVQPGGSLRLSCAASLGTFSSFVMSWFRQAPGKEREFVSAISGSGSRARYADSVKGRFTISRDNSKNTLYLQMNSLRAEDTAVYYCAANPRRATPDYTQYAYWGQGTLVTVSS
notes: as for B1
For the molecule B17, the EC50 was 2.9 ng/mL.

B18: 5115-H1-M16-Fc (Fc fusion)
chain: EVQLVESGGGLVQPGGSLRLSCAASHRTFSSFVMSWFRQAPGKEREFVSAISGSGSRARYADSVKGRFTISRDNSKNTLYLQMNSLRAEDTAVYYCAANPRRATPDLTQYAYWGQGTLVTVSS
notes: as for B1
Take B18: the EC50 was found to be 3.61 ng/mL.

B19: 5115-H1-M33-Fc (Fc fusion)
chain: EVQLVESGGGLVQPGGSLRLSCAASMPTFSSFVMSWFRQAPGKEREFVSAISGSGSRSRYADSVKGRFTISRDNSKNTLYLQMNSLRAEDTAVYYCAANPRRATPDYTQYAYWGQGTLVTVSS
notes: as for B1
B19: the EC50 came to 1.15 ng/mL.

B20: 5115-H1-M27-Fc (Fc fusion)
chain: EVQLVESGGGLVQPGGSLRLSCAASGRTLSSFVMAWFRQAPGKGLEFVSAISGSGLRARYADSVKGRFTISRDNSKNTLYLQMNSLRAEDTAVYYCAANPRYATPDLTQYAYWGQGTLVTVSS
notes: as for B1
Turning to B20, the EC50 amounted to 1.79 ng/mL.

B21: 5115-H1-M29-Fc (Fc fusion)
chain: EVQLVESGGGLVQPGGSLRLSCAASGRTFSSFVMSWFRQAPGKEREFVSAISGSGSRAYYADSVKGRFTISRDNSKNTLYLQMNSLRAEDTAVYYCAANPRRATPDLRQYAYWGQGTLVTVSS
notes: as for B1
Take B21: the EC50 worked out at 1.62 ng/mL.

B22: 5115-H1-M23-Fc (Fc fusion)
chain: EVQLVESGGGLVQPGGSLRLSCAASGRTFKSFVMSWFRQAPGKEREFVSAISGSGSRARYADSVKGRFTISRDNSKNTLYLQMNSLRAEDTAVYYCAANPRRATPDMTQYAYWGQGTLVTVSS
notes: as for B1
As for B22, the EC50 turned out to be 1.74 ng/mL.

B23: 5115-H1-M15-Fc (Fc fusion)
chain: EVQLVESGGGLVQPGGSLRLSCAASGRTFSSFVMSWFRQAPGKEREFVSAISGSGSRMRYADSVKGRFTISRDNSKNTLYLQMNSLRAEDTAVYYCAANPRRATPDLRQYAYWGQGTLVTVSS
notes: as for B1
As to B23, the EC50 amounted to 2.67 ng/mL.

B24: 5115-H1-M26-Fc (Fc fusion)
chain: EVQLVESGGGLVQPGGSLRLSCAASGRTFSSFVMSWFRQAPGKEREFVSAISGSGSRYTYADSVKGRFTISRDNSKNTLYLQMNSLRAEDTAVYYCAANPRRATPDLMQYAYWGQGTLVTVSS
notes: as for B1
As for B24, the EC50 is 1.52 ng/mL.

B25: 5115-H1-M25-Fc (Fc fusion)
chain: EVQLVESGGGLVQPGGSLRLSCAASGRFFSSFVMSWFRQAPGKEREFVSAISGSGSRARYADSVKGRFTISRDNSKNTLYLQMNSLRAEDTAVYYCAANPRRATPDYSQYAYWGQGTLVTVSS
notes: as for B1
Turning to B25, the EC50 was determined as 1.33 ng/mL.

B26: 5115-H1-M8-Fc (Fc fusion)
chain: EVQLVESGGGLVQPGGSLRLSCAASGRTFSSFVMSWFRQAPGKEREFVSAISGSGSRQRYADSVKGRFTISRDNSKNTLYLQMNSLRAEDTAVYYCAANPRRATPDLSQYAYWGQGTLVTVSS
notes: as for B1
On to B26, for which the EC50 is 2 ng/mL.

B27: 5115-H1-M21-Fc (Fc fusion)
chain: EVQLVESGGGLVQPGGSLRLSCAASGKTFSSFVMSWFRQAPGKEREFVSAISGSGSRTRYADSVKGRFTISRDNSKNTLYLQMNSLRAEDTAVYYCAANPRRATPDYTQYAYWGQGTLVTVSS
notes: as for B1
As to B27, the EC50 was 3.35 ng/mL.

B28: 5115-H1-M4-Fc (Fc fusion)
chain: EVQLVESGGGLVQPGGSLRLSCAASGRFFSSFVMSWFRQAPGKEREFVSAISGSGSRFRYADSVKGRFTISRDNSKNTLYLQMNSLRAEDTAVYYCAANPRRATPDYTQYAYWGQGTLVTVSS
notes: as for B1
Take B28: the EC50 is 1.94 ng/mL.

B29: 5115-H1-M9-Fc (Fc fusion)
chain: EVQLVESGGGLVQPGGSLRLSCAASGRTFSSFVMSWFRQAPGKEREFVSAISGSGSRLRYADSVKGRFTISRDNSKNTLYLQMNSLRAEDTAVYYCAANPRRATPDLLQYAYWGQGTLVTVSS
notes: as for B1
Take B29: the EC50 was 2.3 ng/mL.

B30: 5115-H1-M22-Fc (Fc fusion)
chain: EVQLVESGGGLVQPGGSLRLSCAASGRTFSSFVMSWFRQAPGKEREFVSAISGSGSRSRYADSVKGRFTISRDNSKNTLYLQMNSLRAEDTAVYYCAANPRRATPDLLQYAYWGQGTLVTVSS
notes: as for B1
For the molecule B30, the EC50 was 1.79 ng/mL.
